# Laboratory results as given in patent US20230183352A1 (published 2023).
# Read-outs that look alike come from different tables or passages of the source.
# How the values were obtained:
# [1] = molecular target: T1, Claudin 18.2 (CLDN18.2), expressed on CHOS-CLDN 18.2 / HEK293-CLDN 18.2 / HCC827-CLDN 18.2 cells (human, UniProt P56856-2 1-261); experiment: FACS, CHOS-CLDN18.2 cells, 0.078 µg/ml
# T1 construct: whole, on cells; The species is not repeated for the CHOS-CLDN 18.2 cells; also called claudin-18A2
# Protocol: (§1) The initial concentration of the antibody was 20 μg/ml, it was diluted at 1:4, and incubated at 4° C. for 60 min.
# [2] = molecular target: T1, Claudin 18.2 (CLDN18.2), expressed on …; experiment: FACS, CHOS-CLDN18.2 cells, 0.020 µg/ml
# Protocol: as §1
# [3] = molecular target: T1, Claudin 18.2 (CLDN18.2), expressed on …; experiment: FACS, CHOS-CLDN18.2 cells, 0.313 µg/ml
# Protocol: as §1
# [4] = molecular target: T1, Claudin 18.2 (CLDN18.2), expressed on …; experiment: FACS, CHOS-CLDN18.2 cells, 0 µg/ml (background)
# Protocol: as §1
# [5] = molecular target: T1, Claudin 18.2 (CLDN18.2), expressed on …; experiment: FACS, CHOS-CLDN18.2 cells, 10 µg/ml
# Protocol: The initial concentration of the antibody was 20 μg/mkit was diluted at 1:4, and incubated at 4° C. for 60 min.
# [6] = molecular target: T1, Claudin 18.2 (CLDN18.2), expressed on …; experiment: FACS, CHOS-CLDN18.2 cells, 1.250 µg/ml
# Protocol: as §1
# [7] = molecular target: T1, Claudin 18.2 (CLDN18.2), expressed on …; experiment: FACS, CHOS-CLDN18.2 cells
# Protocol: as §1
# [8] = molecular target: T1, Claudin 18.2 (CLDN18.2), expressed on …; experiment: FACS, CHOS-CLDN18.2 cells, 0.078 µg/ml; remark: listed apart in the source
# Protocol: as §1
# [9] = molecular target: T1, Claudin 18.2 (CLDN18.2), expressed on …; experiment: FACS, CHOS-CLDN18.2 cells, 0.313 µg/ml; remark: listed apart in the source
# Protocol: as §1
# [10] = molecular target: T1, Claudin 18.2 (CLDN18.2), expressed on …; experiment: FACS, CHOS-CLDN18.2 cells; remark: listed apart in the source
# Protocol: as §1
# [11] = molecular target: T1, Claudin 18.2 (CLDN18.2), expressed on …; experiment: FACS, CHOS-CLDN18.2 cells, 0 µg/ml (background); remark: listed apart in the source
# Protocol: as §1
# [12] = molecular target: T1, Claudin 18.2 (CLDN18.2), expressed on …; experiment: FACS, CHOS-CLDN18.2 cells, 5 µg/ml
# Protocol: as §1
# [13] = molecular target: T1, Claudin 18.2 (CLDN18.2), expressed on …; experiment: FACS, CHOS-CLDN18.2 cells, 0 µg/ml (background); remark: listed apart in the source
# Protocol: as §1
# [14] = molecular target: T1, Claudin 18.2 (CLDN18.2), expressed on …; experiment: FACS, CHOS-CLDN18.2 cells, 0.313 µg/ml; remark: listed apart in the source
# Protocol: as §1
# [15] = molecular target: T1, Claudin 18.2 (CLDN18.2), expressed on …; experiment: FACS, CHOS-CLDN18.2 cells, 1.250 µg/ml; remark: listed apart in the source
# Protocol: as §1
# [16] = molecular target: T1, Claudin 18.2 (CLDN18.2), expressed on …; experiment: FACS, CHOS-CLDN18.2 cells, 0 µg/ml (background); remark: listed apart in the source
# Protocol: as §1
# [17] = molecular target: T1, Claudin 18.2 (CLDN18.2), expressed on …; experiment: FACS, CHOS-CLDN18.2 cells, 0.005 µg/ml
# Protocol: as §1
# [18] = molecular target: T1, Claudin 18.2 (CLDN18.2), expressed on …; experiment: FACS, CHOS-CLDN18.2 cells, 0.005 µg/ml; remark: listed apart in the source
# Protocol: as §1
binder,measurement,setting,value
"QP024025 (antibody, human IgG1, V domains shown, also called IMAB362; 175D10(IMAB362)) VH: QVQLQQPGAELVRPGASVKLSCKASGYTFTSYWINWVKQRPGQGLEWIGNIYPSDSYTNYNQKFKDKATLTVDKSSSTAYMQLSSPTSEDSAVYYCTRSWRGNSFDYWGQGTTLTVSS VL: DIVMTQSPSSLTVTAGEKVTMSCKSSQSLLNSGNQKNYLTWYQQKPGQPPKLLIYWASTRESGVPDRFTGSGSGTDFTLTISSVQAEDLAVYYCQNDYSYPFTFGSGTKLEIK",FACS reading,[1],18200
same,FACS reading,[2],6950
same,FACS reading,[3],51000
same,FACS reading,[4],732
same,MFI,[5],145000
same,FACS reading,[6],63700
same,EC50,[7],0.27 µg/mL
same,max,[7],88600
same,FACS reading,[8],18200
same,FACS reading,[9],51000
same,EC50,[10],0.27 µg/mL
same,max,[10],88600
same,FACS reading,[11],732
same,FACS reading,[12],105000
same,FACS reading,[13],732
same,FACS reading,[14],51000
same,FACS reading,[15],63700
same,FACS reading,[16],732
same,FACS reading,[17],2830
same,FACS reading,[18],2830
